Results published in patent US20210130452A1 (Merck KGaA, published 2021).
Residue numbers refer to the chain shown, from its start. Numbers in names are those of the source.

Legend:
[1] = molecular target: T1, human IL-17A/F heterodimer (human, UniProt Q16552 24-155; Q96PD4 31-163, limits assumed); test: SPR
T1 construct: produced in E. coli, bought from R&D Systems (Cat 5194-IL/CF); also called hIL-17A/F
T1 sequence (Q16552 24-155 limits assumed, chain 1 of 2, one chain of several): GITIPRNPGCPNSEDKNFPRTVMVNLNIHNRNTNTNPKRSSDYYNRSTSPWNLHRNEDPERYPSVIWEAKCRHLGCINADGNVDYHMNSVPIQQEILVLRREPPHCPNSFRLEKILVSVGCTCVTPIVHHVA

human IL-17A [2] = molecular target: T2, human IL-17A (human, UniProt Q16552 24-155); test: SPR
T2 construct: secreted form (GenBank U32659) expressed in Hek293 with C-terminal 6-His; also called hIL-17A; IL-17A-6HIS
T2 sequence (Q16552 other isoform, or with tags, fused parts or gaps): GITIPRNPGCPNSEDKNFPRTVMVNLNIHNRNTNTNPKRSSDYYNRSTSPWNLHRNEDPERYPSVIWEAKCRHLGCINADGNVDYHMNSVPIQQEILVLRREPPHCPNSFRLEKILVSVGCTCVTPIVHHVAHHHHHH

human IL-17A [3] = molecular target: T2, human IL-17A; test: AlphaScreen IL-17A-IL-17RA, average
human IL-17F [4] = molecular target: T3, human IL-17F (human, UniProt Q96PD4 31-163); test: AlphaScreen IL-17F-IL-17RC; vs IL17MS16A04
T3 construct: made in Hek293 cells (GenBank AF384857); also called hIL-17F; hIL17F
T3 sequence: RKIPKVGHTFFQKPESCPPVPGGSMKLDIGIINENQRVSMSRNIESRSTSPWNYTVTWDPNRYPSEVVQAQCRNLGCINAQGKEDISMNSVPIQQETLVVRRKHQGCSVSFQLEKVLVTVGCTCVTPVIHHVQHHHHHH

human IL-17F [5] = molecular target: T4, human IL-17F (human, UniProt Q96PD4 31-163, biotinylated with Sulfo-NHS-LC-Biotin in the AlphaScreen assays only); test: AlphaScreen competition, hIL-17F - IL-17RC-Fc
T4 construct: also called hIL-17F; recombinant human IL-17F
T4 sequence: T3 sequence
Experimental: (§1) To this mixture, the IL-17RA or IL-17RC Fc-fusions, Acceptor beads and the streptavidin Donor beads were added and further incubated for 1 hour at RT.

human IL-17F [6] = molecular target: T4, human IL-17F; test: AlphaScreen competition, hIL-17F - IL-17RA-Fc
Experimental: as §1

human IL-17F [7] = molecular target: T4, human IL-17F; test: SPR Biacore, hIL-17F on chip; purified protein
Experimental: (§2) Off-rates of the periplasmic extracts containing anti-IL-17 Nanobodies were measured by Surface Plasmon Resonance (SPR) using a Biacore T100 instrument. […] Periplasmic extracts containing IL-17 neutralizing Nanobodies were injected for 2 minutes at a flow rate of 45 μl/min to allow binding to chip-bound antigen. Next, binding buffer without periplasmic extracts was sent over the chip at the same flow rate to allow spontaneous dissociation of bound Nanobody. From the sensorgrams obtained for the different periplasmic extracts koff-values (k₄) were calculated.

human IL-17F [8] = molecular target: T4, human IL-17F; test: cell-based or functional assay
[9] = molecular target: T5, human IL-17A/F heterodimer (human, UniProt Q16552 24-155; Q96PD4 31-163, limits assumed, biotinylated with Sulfo-NHS-LC-Biotin in the AlphaScreen assays only); test: AlphaScreen competition, hIL-17A/F - IL-17RC-Fc
T5 construct: also called hIL-17A/F
Target sequence in this assay (Q16552 24-155 limits assumed, chain 1 of 2, one chain of several): as the sequence (Q16552 24-155 limits assumed, chain 1 of 2, one chain of several) above
Experimental: as §1

[10] = molecular target: T5, human IL-17A/F heterodimer; test: SPR Biacore, hIL-17A/F on chip; purified protein
Target sequence in this assay (Q16552 24-155 limits assumed, chain 1 of 2, one chain of several): as above

human IL-17A [11] = molecular target: T6, human IL-17A (human, UniProt Q16552 24-155, biotinylated with Sulfo-NHS-LC-Biotin in the AlphaScreen assays only); test: SPR Biacore, hIL-17A on chip; periplasmic extract (*); NB = no binding
T6 construct: also called hIL-17A; recombinant human IL-17A
Experimental: as §2

human IL-17F [12] = molecular target: T3, human IL-17F; test: SPR (Biacore) off-rate
[13] = molecular target: T7, human IL-17A/F heterodimer (human, UniProt Q16552 24-155; Q96PD4 31-163, limits assumed); test: SPR (Biacore) off-rate
T7 construct: bought, made in E. coli (R&D Systems 5194-IL/CF); also called hIL-17A/F; hIL17A/F
T7 sequence (Q16552 24-155 limits assumed, chain 1 of 2, one chain of several): as above

human IL-17A [14] = molecular target: T8, human IL-17A (human, UniProt Q16552 24-155); test: SPR (Biacore) off-rate
T8 construct: secreted form made in Hek293 cells (GenBank U32659); also called hIL-17A; hIL17A
T8 sequence (Q16552 other isoform, or with tags, fused parts or gaps): as the sequence (Q16552 other isoform, or with tags, fused parts or gaps) above

human IL-17A [15] = molecular target: T8, human IL-17A; test: AlphaScreen hIL-17A-IL-17RA; vs IL17MS13B03
human IL-17F [16] = molecular target: T3, human IL-17F; test: AlphaScreen hIL-17F-IL-17RC; vs IL17MS13B03
[17] = molecular target: T5, human IL-17A/F heterodimer; test: cell-based or functional assay
Target sequence in this assay (Q16552 24-155 limits assumed, chain 1 of 2, one chain of several): as the sequence (Q16552 24-155 limits assumed, chain 1 of 2, one chain of several) above

[18] = molecular target: T5, human IL-17A/F heterodimer; test: AlphaScreen competition, hIL-17A/F - IL-17RA-Fc
Target sequence in this assay (Q16552 24-155 limits assumed, one chain of several): as the sequence (Q16552 24-155 limits assumed, chain 1 of 2, one chain of several) above
Experimental: as §1

human IL-17F [19] = molecular target: T9, human IL-17F (human, UniProt Q96PD4 31-163); test: SPR, IL-17F-Nanobody complex over captured IL-17RC
T9 construct: GenBank AF384857, expressed in Hek293 as 6-His C-terminal tagged protein; also called hIL-17F; IL-17F-6HIS
T9 sequence: T3 sequence
Text: (§3) The receptor (IL-17RA or IL-17RC) was captured via its human Fc-tail by an anti-human IgG-Fc antibody coated on the chip.

human IL-17A [20] = molecular target: T2, human IL-17A; test: ELISA, coated IL-17A
Experimental: (§4) Binding of a selected panel of anti-IL-17 Nanobodies to IL-17 of other species was assessed using a binding ELISA. […] HRP (horseradish peroxidase) conjugated anti-myc (Serotec, MCA 2200P) was used for detection using esTMB as substrate.

rat IL-17A = molecular target: T10, rat IL-17A (rat, UniProt Q61453 18-150, limits assumed); test: ELISA, coated IL-17A
T10 sequence (looked up): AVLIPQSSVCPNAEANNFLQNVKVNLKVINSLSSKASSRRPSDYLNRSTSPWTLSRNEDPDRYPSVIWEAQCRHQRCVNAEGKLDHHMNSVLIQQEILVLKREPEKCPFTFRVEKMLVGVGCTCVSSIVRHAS
Experimental: as §4

mouse IL-17A = molecular target: T11, mouse IL-17A (mouse, UniProt Q62386 26-158); test: ELISA, coated IL-17A
T11 sequence (looked up): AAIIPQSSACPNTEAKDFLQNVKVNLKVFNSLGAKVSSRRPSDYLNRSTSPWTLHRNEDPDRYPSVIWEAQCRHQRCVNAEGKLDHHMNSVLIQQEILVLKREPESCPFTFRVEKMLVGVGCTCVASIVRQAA
Experimental: as §4

marmoset IL-17A = molecular target: T12, marmoset IL-17A (marmoset, IL-17A is a disulfide-linked homodimer. One chain is given.); test: ELISA, coated IL-17A
T12 chain: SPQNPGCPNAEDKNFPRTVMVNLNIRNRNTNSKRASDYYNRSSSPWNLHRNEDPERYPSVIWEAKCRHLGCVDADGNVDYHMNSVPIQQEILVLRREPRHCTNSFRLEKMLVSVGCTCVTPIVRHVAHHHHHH
Experimental: as §4

guinea pig IL-17A = guinea pig IL-17A (guinea pig); test: ELISA, coated IL-17A
Experimental: as §4

human IL-17A [21] = molecular target: T2, human IL-17A; test: SPR, IL-17A-Nanobody complex over captured IL-17RA
Text: as §3

human IL-17F [22] = molecular target: T9, human IL-17F; test: ELISA, coated IL-17F;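 further: binding ELISA on coated antigen from various species, with bound Nanobodies revealed by an HRP-linked anti-myc antibody and esTMB substrate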
Experimental: as §4

rat IL-17F = molecular target: T13, rat IL-17F (rat, UniProt Q5BJ95 29-161); test: ELISA, coated IL-17F;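 further: binding ELISA on coated antigen from various species, with bound Nanobodies revealed by an HRP-linked anti-myc antibody and esTMB substrate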
T13 sequence (looked up): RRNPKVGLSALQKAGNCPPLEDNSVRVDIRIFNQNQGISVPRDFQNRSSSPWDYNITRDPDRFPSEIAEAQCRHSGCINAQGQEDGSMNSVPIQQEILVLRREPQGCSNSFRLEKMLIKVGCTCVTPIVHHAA
Experimental: as §4

mouse IL-17F = molecular target: T14, mouse IL-17F (mouse, UniProt Q7TNI7 29-161); test: ELISA, coated IL-17F;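 further: binding ELISA on coated antigen from various species, with bound Nanobodies revealed by an HRP-linked anti-myc antibody and esTMB substrate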
T14 sequence (looked up): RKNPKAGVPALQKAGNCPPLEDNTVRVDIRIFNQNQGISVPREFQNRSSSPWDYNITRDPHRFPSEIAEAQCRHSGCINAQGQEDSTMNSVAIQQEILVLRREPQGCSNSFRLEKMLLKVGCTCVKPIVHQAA
Experimental: as §4

T6 sequence (Q16552 other isoform, or with tags, fused parts or gaps): as the sequence (Q16552 other isoform, or with tags, fused parts or gaps) above

B1: IL17MS3010 (VHH, name in Kabat numbering)
VHH: EVQLVESGGGLVQPGGSQRLSCTASGTIVNIHVMGWYRQAPGKQRELVALIFSGGSADYADSVKGRFTISRDNSKNTVYLQMNSLRAEDTAVYYCAAEIGYYSGGTYYSSEAHWGQGTLVTVSS
notes: also called IL17MS3010 basic
- koff [1]: 0.000217 s⁻¹
- koff (human IL-17A [2]): 0.00013 s⁻¹
- IC50 (human IL-17A [3]): 0.184 nM

B2: IL17MS3017 (VHH, name in Kabat numbering)
VHH: B1 VHH with Q18L, T23A, A87P
notes: basic + Q18L, T23A, A84P; Kabat positions
- koff [1]: 0.000242 s⁻¹
- koff (human IL-17A [2]): 0.000144 s⁻¹
- IC50 (human IL-17A [3]): 0.163 nM

B3: IL17MS3013 (VHH, name in Kabat numbering)
VHH: B1 VHH with A87P
notes: basic + A84P; Kabat positions
- koff [1]: 0.000185 s⁻¹
- koff (human IL-17A [2]): 0.000116 s⁻¹
- IC50 (human IL-17A [3]): 0.081 nM

B4: IL17MS3011 (VHH, name in Kabat numbering)
VHH: B1 VHH with Q18L
notes: basic + Q18L; Kabat positions
- koff [1]: 0.000223 s⁻¹
- koff (human IL-17A [2]): 0.000132 s⁻¹
- IC50 (human IL-17A [3]): 0.139 nM

B5: IL17MS3012 (VHH, name in Kabat numbering)
VHH: B1 VHH with T23A
notes: basic + T23A; Kabat positions
- koff [1]: 0.000228 s⁻¹
- koff (human IL-17A [2]): 0.000137 s⁻¹
- IC50 (human IL-17A [3]): 0.101 nM

B6: IL17MS3059 (VHH)
VHH: DVQLVESGGGLVQPGGSLRLSCAASGRTFSSYVVGWFRQAPGKEREFVGAISGSGESIYYAVSEKGRFTISRDNSKNTLYLQMNSLRPEDTAVYYCTADQEFGYLRFGRSEYWGQGTLVTVSS
notes: variant of IL17MS16A04; Kabat numbering
- IC50 fold difference vs WT (human IL-17F [4]): 6.7 fold

B7: IL17MS3062 (VHH)
VHH: B6 VHH with D1E
notes: as for B6
- IC50 fold difference vs WT (human IL-17F [4]): 7.4 fold

B8: IL17MS3065 (VHH)
VHH: B6 VHH with V48I, E56D, S57T
notes: as for B6
- IC50 fold difference vs WT (human IL-17F [4]): 12.7 fold

B9: IL17MS3064 (VHH)
VHH: B6 VHH with E56D, S57T
notes: as for B6
- IC50 fold difference vs WT (human IL-17F [4]): 30.3 fold

B10: 08A08 (VHH)
VHH: EVQLVESGGGLVQAGGSLRLSCAASGRTFRPYRMGWFRRAPGKAREFVTLISWSSGRTSYADSVKGRFTISRDSAKNAVYLQMDNLKPEDTAVYFCAVDLSGDAVYDSWGQGTQVTVSS
notes: Class 3 Nanobody (anti-IL-17F); not shown: c-myc, His6 tag
- IC50 (human IL-17F [5]): 1.3 nM
- IC50 (human IL-17F [6]): 3.84 nM
- koff (human IL-17F [7]): 0.048 s⁻¹
- IL-17F-induced IL-6 production in HT-1080 cells, Emax (human IL-17F [8]): 62%
- IL-17F-induced IL-6 production in HT-1080 cells, IC50 (human IL-17F [8]): 206 nM
- IC50 [9]: 19.7 nM
- koff [10]: 0.0079 s⁻¹
- binding result (human IL-17A [11]): no binding

B11: IL17MS3047 (VHH)
VHH: EVQLVESGGGLVQPGGSLRLSCAASGRANSINWFGWFRQAPGKEREFVAGIRWSDAYTEYAASVKGRFTISRDNSKNTVYLQMNSLRPEDTAVYYCVLDLSTVRYWGQGTLVTVSS
notes: variant of IL17MS13B03; Kabat numbering
- koff (human IL-17F [12]): 0.00348 s⁻¹
- koff [13]: 0.000538 s⁻¹
- koff (human IL-17A [14]): 0.000252 s⁻¹
- IC50 fold difference compared to WT (human IL-17A [15]): 1.1 fold
- IC50 fold difference compared to WT (human IL-17F [16]): 0.7 fold

B12: IL17MS3052 (VHH)
VHH: EVQLVESGGGSVQAGDSLRLSCAASGRASSINWFGWFRQTPGKEREFVAGIRWSDAYTEYANSVKGRFTISRDNAKNTVDLQMDSLKPEDTAVYYCVLDLSTVRYWGQGTQVTVSS
notes: as for B11
- koff (human IL-17F [12]): 0.00439 s⁻¹
- koff [13]: 0.000518 s⁻¹
- koff (human IL-17A [14]): 0.000289 s⁻¹
- IC50 fold difference compared to WT (human IL-17A [15]): 0.9 fold
- IC50 fold difference compared to WT (human IL-17F [16]): 0.5 fold

B13: IL17MS3051 (VHH)
VHH: B12 VHH with S29F
notes: as for B11
- koff (human IL-17F [12]): 0.00216 s⁻¹
- koff [13]: 0.000396 s⁻¹
- koff (human IL-17A [14]): 0.000205 s⁻¹
- IC50 fold difference compared to WT (human IL-17A [15]): 1.4 fold
- IC50 fold difference compared to WT (human IL-17F [16]): 0.4 fold

B14: 12A09 (VHH)
VHH: EVQLVESGGGLVQPGGSLRLSCAASGFTFSSYRMAWVRQAPGKGLEWVSSTSTGGEMTNYADSVKGRFTISRDNAKNTLHLQMNSLKPEDTALYYCAAGTSAGHWSTGGQGTQVTVSS
notes: as for B10
- IC50 (human IL-17F [5]): 0.612 nM
- IC50 (human IL-17F [6]): 1.84 nM
- IL-17A/F-induced IL-6 production in HT-1080 cells, Emax [17]: 41.5%
- IL-17A/F-induced IL-6 production in HT-1080 cells, IC50 [17]: 100 nM
- IL-17F-induced IL-6 production in HT-1080 cells, Emax (human IL-17F [8]): 91%
- IL-17F-induced IL-6 production in HT-1080 cells, IC50 (human IL-17F [8]): 105 nM
- IC50 [9]: 33.2 nM
- koff [10]: 0.017 s⁻¹
- IC50 [18]: > 250 nM
- binding result (human IL-17A [11]): no binding

B15: 17C01 (VHH)
VHH: EVQLVESGGRLVQAGGSLRLPCAASGRTFTSYPMGWFRQAPGKEREFVAAISMSGDDAAYADFVRGRFTISRDDARNTVYLHMTSLKPEDTAVYYCAARTSYDGTYDYIDDYSYWGQGTQVTVSS
notes: Class 4
- % Biacore binding (IL-17F-NB)-IL-17RC (human IL-17F [19]): 32.5%
- OD (human IL-17A [20]): 1.83 OD
- OD (rat IL-17A): 0 OD
- OD (mouse IL-17A): -0.001 OD
- OD (marmoset IL-17A): 1.84 OD
- OD (guinea pig IL-17A): 0.007 OD
- % Biacore binding (IL-17A-NB)-IL-17RA (human IL-17A [21]): -2.01%
- OD (human IL-17F [22]): 0.772 OD
- OD (rat IL-17F): 0.0025 OD
- OD (mouse IL-17F): -0.0005 OD
